What follows are molecules tested against HA-tagged Synaptic Cell Adhesion Molecule 1 (HA-SynCAM1), full length (mouse) (assay: Cell Adhesion Molecule / Receptor Recruitment Assay).
Sequence of HA-tagged Synaptic Cell Adhesion Molecule 1 (HA-SynCAM1), full length (mouse) (Q8R5M8 48-456): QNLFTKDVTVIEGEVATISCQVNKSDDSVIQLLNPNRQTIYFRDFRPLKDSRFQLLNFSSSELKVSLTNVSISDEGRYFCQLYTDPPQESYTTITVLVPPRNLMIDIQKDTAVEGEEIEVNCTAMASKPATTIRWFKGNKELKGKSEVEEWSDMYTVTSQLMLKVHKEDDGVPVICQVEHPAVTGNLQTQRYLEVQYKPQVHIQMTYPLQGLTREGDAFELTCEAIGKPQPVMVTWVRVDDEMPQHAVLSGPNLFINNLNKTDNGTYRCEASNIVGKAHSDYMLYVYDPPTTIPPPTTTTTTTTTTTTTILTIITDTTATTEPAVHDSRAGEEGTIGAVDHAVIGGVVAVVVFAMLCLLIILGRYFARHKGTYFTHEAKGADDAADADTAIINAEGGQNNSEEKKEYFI

% increase in fluorescence intensity at microspheres relative to background [%]	Molecule
91.8	Syntenin1-GFP (from UniProt O00560 1-298) (natural protein)
100	protein 4.1N, GFP tagged (4.1N-GFP) (from UniProt Q9Z2H5 1-879) (natural protein)
114	GFP-tagged erythrocyte protein band 4.1-like 3 (protein 4.1B), full length (4.1B-GFP) (natural protein)
123	calcium/calmodulin-dependent serine protein kinase (CASK) (natural protein) MADDDVLFEDVYELCEVIGKGPFSVVRRCINRETGQQFAVKIVDVAKFTSSPGLSTEDLKREASICHMLKHPHIVELLETYSSDGMLYMVFEFMDGADLCFEIVKRADAGFVYSEAVASHYMRQILEALRYCHDNNIIHRDVKPHCVLLASKENSAPVKLGGFGVAIQLGESGLVAGGRVGTPHFMAPEVVKREPYGKPVDVWGCGVILFILLSGCLPFYGTKERLFEGIIKGKYKMNPRQWSHISESAKDLVRRMLMLDPAERITVYEALNHPWLKERDRYAYKIHLPETVEQLRKFNARRKLKGAVLAAVSSHKFNSFYGDPPEELPDFSEDPTSSGLLAAERAVSQVLDSLEEIHALTDCSEKDLDFLHSVFQDQHLHTLLDLYDKINTKSSPQIRNPPSDAVQRAKEVLEEISCYPENNDAKELKRILTQPHFMALLQTHDVVAHEVYSDEALRVTPPPTSPYLNGDSPESANGDMDMENVTRVRLVQFQKNTDEPMGITLKMNELNHCIVARIMHGGMIHRQGTLHVGDEIREINGISVANQTVEQLQKMLREMRGSITFKIVPSYRTQSSSCERDSPSTSRQSPANGHSSTNNSVSDLPSTTQPKGRQIYVRAQFEYDPAKDDLIPCKEAGIRFRVGDIIQIISKDDHNWWQGKLENSKNGTAGLIPSPELQEWRVACIAMEKTKQEQQASCTWFGKKKKQYKDKYLAKHNAVFDQLDLVTYEEVVKLPAFKRKTLVLLGAHGVGRRHIKNTLITKHPDRFAYPIPHTTRPPKKDEENGKNYYFVSHDQMMQDISNNEYLEYGSHEDAMYGTKLETIRKIHEQGLIAILDVEPQALKVLRTAEFAPFVVFIAAPTITPGLNEDESLQRLQKESDVLQRTYAHYFDLTIINNEIDETIRHLEEAVELVCTAPQWVPVSWVY

From publication PMC2784006
